One may read the pKd as the negative decadic logarithm of the Kd, by convention in mol/L. Low readings indicate a large Kd, high ones a small Kd.

The assay concerns the target His6-Bcl-2ΔTM G154A/G155A mutant. Put plainly: fluorescence polarisation.

pKd: −log10 of the molar value.

In turn, “His6-Bcl-2ΔTM G154A/G155A mutant (domain or fragment)” gave a negative logarithm of the Kd (pKd) of 7.52.

The values above are taken from paper PMC2858642.
